Test results published in patent publication US20240279356A1 (Xencor, published 2024).

How the values were obtained:
human MSLN antigen [1] = target: T1, human MSLN antigen (human, UniProt Q13421 296-580, limits assumed); assay: Octet BLI; bsAb on anti-human Fc sensor, human MSLN as analyte, one concentration
T1 construct: Soluble antigen for BLI; also called Mesothelin; MESO
Outline: (§1)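 Biolayer interferometry: human MSLN served as analyte, with association then dissociation in buffer, against bispecific antibodies (MESO-C variant Fvs paired with anti-CD3) bound to anti-human Fc sensors. Kinetic constants (KD, ka, kd) came from single-concentration screening of the large library, or from multiple-concentration runs for favoured and combined variants.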

cyno MSLN [2] = target: T2, cyno MSLN (Macaca fascicularis (cynomolgus)); assay: Octet BLI; bsAb on anti-human Fc sensor, cyno MSLN as analyte, one concentration
T2 construct: soluble antigen for Octet; also called cynomolgus MSLN

cyno MSLN [3] = target: T2, cyno MSLN; assay: Octet BLI, several concentrations; lower table, column head only 'cyno MSLN (M)'
human MSLN antigen [4] = target: T1, human MSLN antigen; assay: Octet BLI on human MSLN antigen (Example 2B(a)); KD quoted in the FIG. 35 legend
Outline: as §1

[5] = target: T3, MSLN on OVCAR8 (MSLN^high) and other cancer cell lines (UniProt Q13421 296-598); assay: flow cytometry on OVCAR8 cells, detected with A647-labelled anti-human Fc mAb
T3 construct: whole, on cells; Endogenous surface MSLN; also called MSLN^high OVCAR8 cells; MSLN^low SKOV3 and HT29 cells
T3 sequence (Q13421 other isoform, or with tags, fused parts or gaps limits assumed): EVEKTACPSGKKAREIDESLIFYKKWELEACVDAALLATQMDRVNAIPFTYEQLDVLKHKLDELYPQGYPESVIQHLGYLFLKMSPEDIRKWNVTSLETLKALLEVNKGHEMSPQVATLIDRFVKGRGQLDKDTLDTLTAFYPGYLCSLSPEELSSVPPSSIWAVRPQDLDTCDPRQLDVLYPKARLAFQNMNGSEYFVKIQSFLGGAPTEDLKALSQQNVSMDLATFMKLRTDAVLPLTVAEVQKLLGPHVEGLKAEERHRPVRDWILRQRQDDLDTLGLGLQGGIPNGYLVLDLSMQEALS
Experimental: Next, the effect of MSLN binding affinity was investigated. 100,000 OVCAR8 (MSLN^high) cells were treated with the indicated concentrations of the indicated test articles. […] Further, XENP32852 and XENP32853 which differ only in CD3 binding affinity have identical binding to OVCAR8 cells confirming that avid binding is due to the MSLN binding domain.

human MSLN antigen [6] = target: T1, human MSLN antigen; assay: MSLN KD of the binding domain (Octet BLI, Example 2B(a)); quoted in Example 3B(a)
Excerpt: Variants of MESO-C were engineered by introducing point substitutions into the variable heavy region (VH) and the variable light region (VL) to generate 11 VH variants and 16 VL variants (sequences for which are depicted in FIG. 18 as H1.1-H1.13 and in FIG. 19 as L1.1-L1.18). An additional 4 VL variants were generated by combining useful point substitutions (sequences for which are depicted in FIG. 19 as L1.19-L1.22). WT and variant variable heavy regions were paired with WT and variant variable light regions to generate variant variable regions (Fvs) which were produced in the context of anti-MSLN×anti-CD3 bispecific antibodies. The bispecific antibodies were screened for MSLN binding affinity using Octet®, a BioLayer Interferometry (BLI)-based method. Experimental steps for Octet® generally include the following: Immobilization (capture of ligand to a biosensor); Association (dipping of ligand-coated biosensors into wells containing the analyte); and Dissociation (returning of biosensors to well containing buffer). In an initial screening, anti-human Fc sensors were used to capture the bispecific mAbs and dipped into human MSLN antigen (one concentration to screen large library). The resulting dissociation constant of illustrative variants (KD), association rate (kₐ), dissociation rate (kd), as well as sensorgram response are depicted in FIG. 20. In further screening of favorite variants identified in the initial screen (and combination variants), bispecific mAbs were dipped into multiple concentrations of human MSLN antigen, data for which are depicted in FIG. 21 (from various screens).

T1 sequence (Q13421 other isoform, or with tags, fused parts or gaps limits assumed): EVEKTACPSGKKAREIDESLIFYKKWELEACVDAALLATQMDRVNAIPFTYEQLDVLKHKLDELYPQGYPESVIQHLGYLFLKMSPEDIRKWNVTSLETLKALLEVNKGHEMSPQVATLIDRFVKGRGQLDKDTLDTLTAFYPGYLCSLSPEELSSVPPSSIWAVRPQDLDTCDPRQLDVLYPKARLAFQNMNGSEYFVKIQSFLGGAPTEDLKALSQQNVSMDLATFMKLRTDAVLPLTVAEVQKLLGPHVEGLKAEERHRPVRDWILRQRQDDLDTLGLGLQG

Kd (human MSLN antigen [1]) [nM]	Response (human MSLN antigen [1])	koff (human MSLN antigen [1]) [s⁻¹]	kon (human MSLN antigen [1]) [M⁻¹ s⁻¹]	Kd (cyno MSLN [2]) [nM]	Response (cyno MSLN [2])	koff (cyno MSLN [2]) [s⁻¹]	kon (cyno MSLN [2]) [M⁻¹ s⁻¹]	Kd (cyno MSLN [3]) [nM]	Kd (human MSLN antigen [4]) [nM]	EC50 (read off the curve) [5] [µg/mL]	Kd (human MSLN antigen [6]) [nM]	Binder
0.628	1.01	0.000409	651000	0.887	0.9	0.000594	669000	–	0.74	~0.2	–	XENP32562 (bispecific antibody, 1+1 Fab-scFv-Fc) heavy: QVQLVQSGAEVKKPGASVKVSCKASGYTFTSYWMHWVRQAPGQGLEWMGMIHPNSDNTIYYEKFQGRVTMTVDKSISTAYMELSRLRSDDTAVYYCAIIITPVVPKFDYWGQGTLVTVSSASTKGPSVFPLAPSSKSTSGGTAALGCLVKDYFPEPVTVSWNSGALTSGVHTFPAVLQSSGLYSLSSVVTVPSSSLGTQTYICNVNHKPSDTKVDKKVEPKSCDKTHTCPPCPAPPVAGPSVFLFPPKPKDTLMISRTPEVTCVVVDVKHEDPEVKFNWYVDGVEVHNAKTKPREEEYNSTYRVVSVLTVLHQDWLNGKEYKCKVSNKALPAPIEKTISKAKGQPREPQVYTLPPSREEMTKNQVSLTCDVSGFYPSDIAVEWESDGQPENNYKTTPPVLDSDGSFFLYSKLTVDKSRWEQGDVFSCSVMHEALHNHYTQKSLSLSPGK scFv-Fc: not shown light: DIVMTQSPDSLAVSLGERATINCKASHDVLTSVAWYQQKPGQSPKLLIYWASTRHTGVPDRFTGSGSGTDFTLTISSLQAEDVAVYFCQQYSSYPLTFGAGTKLEIKRTVAAPSVFIFPPSDEQLKSGTASVVCLLNNFYPREAKVQWKVDNALQSGNSQESVTEQDSKDSTYSLSSTLTLSKADYEKHKVYACEVTHQGLSSPVTKSFNRGEC
15.3	0.953	0.00887	578000	21.5	0.822	0.013	608000	6.7	3.9	–	–	XENP32567 (bispecific antibody, 1+1 Fab-scFv-Fc) heavy: QVQLVQSGAEVKKPGASVKVSCKASGYTFTSYWMHWVRQAPGQGLEWMGMIHPNSDNTIYYEKFQGRVTMTVDKSISTAYMELSRLRSDDTAVYYCAIIITPVVPKFDYWGQGTLVTVSSASTKGPSVFPLAPSSKSTSGGTAALGCLVKDYFPEPVTVSWNSGALTSGVHTFPAVLQSSGLYSLSSVVTVPSSSLGTQTYICNVNHKPSDTKVDKKVEPKSCDKTHTCPPCPAPPVAGPSVFLFPPKPKDTLMISRTPEVTCVVVDVKHEDPEVKFNWYVDGVEVHNAKTKPREEEYNSTYRVVSVLTVLHQDWLNGKEYKCKVSNKALPAPIEKTISKAKGQPREPQVYTLPPSREEMTKNQVSLTCDVSGFYPSDIAVEWESDGQPENNYKTTPPVLDSDGSFFLYSKLTVDKSRWEQGDVFSCSVMHEALHNHYTQKSLSLSPGK scFv-Fc: not shown light: DIVMTQSPDSLAVSLGERATINCKASHDVGTSVAWYQQKPGQSPKLLIYWASTRHTGVPDRFTGSGSGTDFTLTISSLQAEDVAVYFCQQYYSYPLTFGAGTKLEIKRTVAAPSVFIFPPSDEQLKSGTASVVCLLNNFYPREAKVQWKVDNALQSGNSQESVTEQDSKDSTYSLSSTLTLSKADYEKHKVYACEVTHQGLSSPVTKSFNRGEC
–	–	–	–	–	–	–	–	–	–	–	9.2	MESO-C[MSLN]_H1.3_L1 (Fab, V domains shown, It was tested as the Fab arm(s) of anti-MSLN x anti-CD3 bsAbs) VH: QVQLVQSGAEVKKPGASVKVSCKASGYTFTSYWMHWVRQAPGQGLEWMGWIHPNSDNTIYYEKFQGRVTMTVDKSISTAYMELSRLRSDDTAVYYCAIIITPVVPKFDYWGQGTLVTVSS VL: DIVMTQSPDSLAVSLGERATINCKASHDVGTSVAWYQQKPGQSPKLLIYWASTRHTGVPDRFTGSGSGTDFTLTISSLQAEDVAVYFCQQYSSYPLTFGAGTKLEIK

The next lines start with the binder.

Binder	Kd (human MSLN antigen [1]) [nM]	Response (human MSLN antigen [1])	koff (human MSLN antigen [1]) [s⁻¹]	kon (human MSLN antigen [1]) [M⁻¹ s⁻¹]	Kd (cyno MSLN [2]) [nM]	Response (cyno MSLN [2])	koff (cyno MSLN [2]) [s⁻¹]	kon (cyno MSLN [2]) [M⁻¹ s⁻¹]	Kd (cyno MSLN [3]) [nM]	Kd (human MSLN antigen [4]) [nM]	EC50 (read off the curve) [5] [µg/mL]	Kd (human MSLN antigen [6]) [nM]
XENP32552 (bispecific antibody, 1+1 Fab-scFv-Fc) heavy: QVQLVQSGAEVKKPGASVKVSCKASGYTFTSYWMHWVRQAPGQGLEWMGWIHPNSDNTIYYEKFQGRVTMTVDKSISTAYMELSRLRSDDTAVYYCAIIITPVVPKFDYWGQGTLVTVSSASTKGPSVFPLAPSSKSTSGGTAALGCLVKDYFPEPVTVSWNSGALTSGVHTFPAVLQSSGLYSLSSVVTVPSSSLGTQTYICNVNHKPSDTKVDKKVEPKSCDKTHTCPPCPAPPVAGPSVFLFPPKPKDTLMISRTPEVTCVVVDVKHEDPEVKFNWYVDGVEVHNAKTKPREEEYNSTYRVVSVLTVLHQDWLNGKEYKCKVSNKALPAPIEKTISKAKGQPREPQVYTLPPSREEMTKNQVSLTCDVSGFYPSDIAVEWESDGQPENNYKTTPPVLDSDGSFFLYSKLTVDKSRWEQGDVFSCSVMHEALHNHYTQKSLSLSPGK scFv-Fc: not shown light: DIVMTQSPDSLAVSLGERATINCKASHDVGTSVAWYQQKPGQSPKLLIYWASTRHTGVPDRFTGSGSGTDFTLTISSLQAEDVAVYFCQQYSSYPLTFGAGTKLEIKRTVAAPSVFIFPPSDEQLKSGTASVVCLLNNFYPREAKVQWKVDNALQSGNSQESVTEQDSKDSTYSLSSTLTLSKADYEKHKVYACEVTHQGLSSPVTKSFNRGEC	30	0.915	0.0147	491000	32.1	0.827	0.0148	459000	10	9.2	–	–
MESO-C[MSLN]_H1_L1.9 (Fab, V domains shown, It was tested as the Fab arm(s) of anti-MSLN x anti-CD3 bsAbs) VH: QVQLVQSGAEVKKPGASVKVSCKASGYTFTSYWMHWVRQAPGQGLEWMGMIHPNSDNTIYYEKFQGRVTMTVDKSISTAYMELSRLRSDDTAVYYCAIIITPVVPKFDYWGQGTLVTVSS VL: DIVMTQSPDSLAVSLGERATINCKASHDVGTSVAWYQQKPGQSPKLLIYWASTRHTGVPDRFTGSGSGTDFTLTISSLQAEDVAVYFCQQYYSYPLTFGAGTKLEIK	–	–	–	–	–	–	–	–	–	–	–	3.9
MESO-C[MSLN]_H1.12_L1.9 (Fab, V domains shown, It was tested as the Fab arm(s) of anti-MSLN x anti-CD3 bsAbs) VH: QVQLVQSGAEVKKPGASVKVSCKASGYTFTSYWMHWVRQAPGQGLEWMGMIHPNSDNTIYYQKFQGRVTMTVDKSISTAYMELSRLRSDDTAVYYCAIIITPVVPKFDYWGQGTLVTVSS VL: DIVMTQSPDSLAVSLGERATINCKASHDVGTSVAWYQQKPGQSPKLLIYWASTRHTGVPDRFTGSGSGTDFTLTISSLQAEDVAVYFCQQYYSYPLTFGAGTKLEIK	–	–	–	–	–	–	–	–	–	–	–	10.2
MESO-C[MSLN]_H1_L1.5 (Fab, V domains shown, It was tested as the Fab arm(s) of anti-MSLN x anti-CD3 bsAbs) VH: QVQLVQSGAEVKKPGASVKVSCKASGYTFTSYWMHWVRQAPGQGLEWMGMIHPNSDNTIYYEKFQGRVTMTVDKSISTAYMELSRLRSDDTAVYYCAIIITPVVPKFDYWGQGTLVTVSS VL: DIVMTQSPDSLAVSLGERATINCKASHDVGTYVAWYQQKPGQSPKLLIYWASTRHTGVPDRFTGSGSGTDFTLTISSLQAEDVAVYFCQQYSSYPLTFGAGTKLEIK	–	–	–	–	–	–	–	–	–	–	–	~12.8
